Data published in the Human Domainome abundance scans (Beltran et al. 2025).

B1: Pituitary-specific positive transcription factor 1, residues 130 to 198; numbered along this chain, P28069 (parent)
chain: RELEKFANEFKVRRIKLGYTQTNVGEALAAVHGSEFSQTTICRFENLQLSFKNACKLKAILSKWLEEAE

Variants of: B1
Assay: abundance fitness (aPCA) (normalised: wild type 0, dead -1); higher = more abundant; growth selection in yeast, the domain comes from the species named
Conditions: Homo sapiens

Abundance fitness of substitutions, site by site:
T40: G -0.528; D 0.308; S -0.348; Q -0.211; N -0.71; I -0.642; L -0.003; M -0.431; E -0.193; W -0.624; H -0.403; A -0.235; F -0.911; C -0.512; V -0.314
G25: K -0.797; N -0.911; Y 0.101; C 0.005; L -0.692; I -0.184; V 0.085; D -0.647; M -0.468; Q -0.171; S 0.198; W -0.001; F -0.285; T -0.325; R -0.813; P -0.776; A 0.396
Q21: R -0.288; H -0.164; P -0.275; L -0.138; T -0.028; D -0.674; N -0.766; W -0.592; M -0.394; V -0.278; G -1.07; F -0.932; A -0.16; Y -0.325; K -0.702; S -0.506; E -0.549; I -0.246
T22: S 0.106; G -0.052; H 0.041; C -0.108; I -0.525; Q 0.209; N -0.063; M 0.08; K 0.267; L -0.156; Y -0.392; V -0.328; E 0.491; A 0.357; P -0.573; W 0.18
S34: F -0.387; N 0.107; I -0.171; W -0.562; T -0.139; D -0.015; L -0.253; M -0.188; K 0.09; E 0.019; V -0.084; C -0.431; R -0.038; Q 0.057; P 0.133; A -0.079; H 0.039; Y -0.373
A30: N -0.219; T -0.23; R 0.042; K -0.008; L -0.217; F -0.726; E -0.128; Y -0.633; S -0.138; M -0.261; V -0.444; P -0.468; I -0.309; C -0.127; G -0.298; D -0.457; H -0.357
Y19: S -0.696; V -0.855; G -0.501; D -0.696; R -0.718; Q -0.149; E -0.934; H -0.376; W -0.283; F -0.501; K -0.674; I -0.382
V24: N -0.581; L -0.361; S -0.681; M -0.851; Y -0.767; F -0.92; G -0.753; R -0.931; K -0.846; A -0.728; I -0.545; T -0.625; C -0.337
V31: S -0.004; F -0.34; Y -0.339; R -0.053; H -0.574; P -0.912; I 0.027; G -0.404; M -0.135; K 0.131; E -0.013; D -0.462; Q -0.033; N -0.389; L -0.058; T -0.021; W -0.392; C -0.258
H32: Y 0.276
E35: W -0.265; Q -0.059; D -0.144; F -0.262; V -0.306; A -0.097; K -0.23; C -0.182; I -0.276; R -0.208; S -0.051; M -0.162; L -0.222; P -0.381; G -0.086; N -0.165; H -0.228
L28: T -0.226; P -0.853; M -0.824; C -0.889; R -0.554; E -0.718; Y -0.711; I -0.276; D -0.162; N -0.863; S -0.732; A -0.799; G -0.715
S37: Q -0.736; P -0.544; H -0.689; M -0.823; V -0.833; E -0.568; N 0.117; R -0.743; T -0.063; D 0.199; I -0.697; Y -0.508; W -0.925; L -0.682; C -0.281; A -0.607; F -0.901
I41: V -0.523; T -0.892; Q -0.785; W -0.502; K -0.842; N -0.88; L -0.541; C -0.444; G -0.976; H -0.56; P -0.897; S -0.866; D -0.758; M -0.446
G33: Q -0.212; R -0.835; E -0.856; M -0.792; A -0.555; S -0.75; H -0.536; P -0.393; I -1; D -0.721; Y -0.96; L -1.08; K -0.85; C -0.791; T -0.892; F -0.934
C42: T -0.02; K 0.148; V -0.336; R 0.142; F -0.348; N 0.092; A 0.21; H -0.001; P -0.761; G -0.029; M 0.311; D 0.325
F36: T -0.512; K -0.744; M -0.31; G -1.05; N -0.758; Q -0.517; L -0.393; A -0.496; I 0.128; P -0.702; H -0.747; W -0.229; C -0.526
A29: M -0.402; C -0.361; V -0.87; Y -0.609; Q -0.112; F -0.509; W -0.932; G -0.416; T 0.063; L -0.829; S -0.119; P -0.89; N -0.595; I -0.492; K -0.202; H -0.079; R -0.127
N23: A 0.267; R -0.053; L -0.478; Y 0.008; F 0.145; V -0.27; I -0.539; C -0.184; E 0.352; S 0.086; P -0.992; Q 0.347; M 0.392; H 0
A27: N -0.74; K -0.483; G -0.739; T -0.18; W 0.053; F -0.437; D -0.221; L -0.315; Q 0.016; S -0.106; I -0.166; V -0.662; C -0.289; Y -0.144; E 0.137; P -0.868
Q38: T 0.277
T20: E -0.536; Q -0.911; W -1.12; I -0.951; S -0.044; V -0.789; Y -1.17; H -1.05; R -0.941; L -0.683; C -0.871; N -0.384; P -0.942; G -0.662
T39: G -0.13; M -0.147; S -0.065; W -0.393; R -0.096; C -1.07; Y -0.447; D 0.118; I -0.312; Q 0.13; P -0.387; L -0.242; K 0.052; V -0.113; E 0.255
E26: W -0.493; F -0.849; V -0.461; G -0.771; N -0.083; A -0.332; H -0.486; C -0.476; D 0.205; Q -0.527
